Data from article PMC6513997.

Biological target: native PRC2 purified from HeLa cells expressing FLAG-tagged EZH2 (not stated | human (endogenous in HeLa)) (UniProt Q15910)
Sequence (Q15910 whole entry, chain 1 of 4): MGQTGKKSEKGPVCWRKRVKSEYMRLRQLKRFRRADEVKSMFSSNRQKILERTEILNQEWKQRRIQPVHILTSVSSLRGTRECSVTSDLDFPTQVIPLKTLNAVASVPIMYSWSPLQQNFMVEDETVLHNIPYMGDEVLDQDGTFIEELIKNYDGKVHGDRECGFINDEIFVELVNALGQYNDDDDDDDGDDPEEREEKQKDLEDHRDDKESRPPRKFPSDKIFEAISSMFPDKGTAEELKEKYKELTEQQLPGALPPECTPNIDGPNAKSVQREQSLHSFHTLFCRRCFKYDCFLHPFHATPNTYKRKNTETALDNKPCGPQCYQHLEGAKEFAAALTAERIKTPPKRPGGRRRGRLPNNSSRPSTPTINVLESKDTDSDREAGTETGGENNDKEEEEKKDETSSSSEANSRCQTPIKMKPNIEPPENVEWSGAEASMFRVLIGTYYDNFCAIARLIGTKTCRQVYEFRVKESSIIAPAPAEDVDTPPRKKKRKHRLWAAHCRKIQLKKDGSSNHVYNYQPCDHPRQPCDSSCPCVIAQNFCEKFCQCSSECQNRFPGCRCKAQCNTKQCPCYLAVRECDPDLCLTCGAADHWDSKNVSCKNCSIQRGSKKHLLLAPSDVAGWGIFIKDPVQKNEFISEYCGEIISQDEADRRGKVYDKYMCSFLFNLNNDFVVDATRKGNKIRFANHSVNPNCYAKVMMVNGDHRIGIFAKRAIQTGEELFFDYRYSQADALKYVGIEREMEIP
Sequence (Q15022 whole entry, chain 2 of 4, further chain): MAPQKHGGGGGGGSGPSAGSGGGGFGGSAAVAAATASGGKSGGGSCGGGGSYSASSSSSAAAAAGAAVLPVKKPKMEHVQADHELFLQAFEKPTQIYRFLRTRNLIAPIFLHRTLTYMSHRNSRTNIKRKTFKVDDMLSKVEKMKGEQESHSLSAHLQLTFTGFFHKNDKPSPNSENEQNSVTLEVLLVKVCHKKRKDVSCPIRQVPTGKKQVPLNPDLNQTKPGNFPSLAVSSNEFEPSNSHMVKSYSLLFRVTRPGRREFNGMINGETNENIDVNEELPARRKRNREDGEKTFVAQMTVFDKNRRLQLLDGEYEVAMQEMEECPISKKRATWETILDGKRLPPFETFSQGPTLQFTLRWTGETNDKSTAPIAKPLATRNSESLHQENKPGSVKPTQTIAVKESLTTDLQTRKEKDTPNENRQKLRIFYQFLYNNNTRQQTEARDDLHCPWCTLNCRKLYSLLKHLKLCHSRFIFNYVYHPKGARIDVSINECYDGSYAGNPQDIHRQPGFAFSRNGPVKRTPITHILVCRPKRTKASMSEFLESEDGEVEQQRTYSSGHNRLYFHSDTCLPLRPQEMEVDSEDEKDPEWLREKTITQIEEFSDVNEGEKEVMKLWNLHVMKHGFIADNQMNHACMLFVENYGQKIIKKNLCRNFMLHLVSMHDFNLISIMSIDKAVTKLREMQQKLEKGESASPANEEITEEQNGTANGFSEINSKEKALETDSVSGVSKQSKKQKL
Sequence (O75530 2-441, chain 3 of 4, further chain): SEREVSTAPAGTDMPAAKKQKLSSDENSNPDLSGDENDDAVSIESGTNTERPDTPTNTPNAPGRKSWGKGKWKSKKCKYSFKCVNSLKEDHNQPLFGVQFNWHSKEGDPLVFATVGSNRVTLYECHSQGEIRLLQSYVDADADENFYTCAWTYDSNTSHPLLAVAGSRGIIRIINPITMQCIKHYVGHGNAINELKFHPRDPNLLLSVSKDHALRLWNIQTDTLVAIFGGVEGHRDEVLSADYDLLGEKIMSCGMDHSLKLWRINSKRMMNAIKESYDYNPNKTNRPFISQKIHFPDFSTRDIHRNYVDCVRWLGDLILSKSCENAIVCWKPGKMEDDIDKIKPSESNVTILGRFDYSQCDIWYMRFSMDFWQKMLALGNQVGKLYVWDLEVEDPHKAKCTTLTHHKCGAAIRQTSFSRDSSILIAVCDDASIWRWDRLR
Sequence (Q09028 2-425, chain 4 of 4, further chain): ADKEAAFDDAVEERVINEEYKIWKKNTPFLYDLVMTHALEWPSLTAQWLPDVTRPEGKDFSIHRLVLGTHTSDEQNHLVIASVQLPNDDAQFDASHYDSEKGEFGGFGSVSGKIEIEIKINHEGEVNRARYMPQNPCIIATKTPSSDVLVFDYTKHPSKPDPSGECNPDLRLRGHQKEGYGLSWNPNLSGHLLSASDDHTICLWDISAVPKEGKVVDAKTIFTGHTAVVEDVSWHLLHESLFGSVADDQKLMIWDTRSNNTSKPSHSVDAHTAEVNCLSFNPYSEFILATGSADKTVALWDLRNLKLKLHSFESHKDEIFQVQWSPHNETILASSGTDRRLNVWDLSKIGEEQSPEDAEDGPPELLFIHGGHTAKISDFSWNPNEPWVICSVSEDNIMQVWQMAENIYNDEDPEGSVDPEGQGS

Chain of full length recombinant EZHIP WT, 6x-His-tagged (natural protein) (Q86X51 whole entry): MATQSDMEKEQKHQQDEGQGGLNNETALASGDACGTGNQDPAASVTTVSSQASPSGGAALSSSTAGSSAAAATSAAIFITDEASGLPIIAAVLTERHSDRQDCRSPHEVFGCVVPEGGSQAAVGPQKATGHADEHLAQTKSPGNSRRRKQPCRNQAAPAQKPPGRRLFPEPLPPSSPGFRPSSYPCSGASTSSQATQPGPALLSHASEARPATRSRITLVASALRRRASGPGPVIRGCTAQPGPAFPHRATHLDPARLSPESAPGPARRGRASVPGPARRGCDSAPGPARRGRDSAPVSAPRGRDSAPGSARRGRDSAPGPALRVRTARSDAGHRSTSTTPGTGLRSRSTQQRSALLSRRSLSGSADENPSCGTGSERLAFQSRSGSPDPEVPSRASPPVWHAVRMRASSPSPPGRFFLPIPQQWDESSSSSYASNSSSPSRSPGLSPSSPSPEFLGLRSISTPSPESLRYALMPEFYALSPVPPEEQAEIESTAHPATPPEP

IC50 of PRC2-catalyzed methylation of oligonucleosomes, in vitro methyltransferase assay, EZHIP titrated: 50 nM
Substance: full length recombinant EZHIP WT, 6x-His-tagged (natural protein)
